Test results: publication doi:10.1101/2024.12.23.630085, “Accurate sequence-to-affinity models for SH2 domains from multi-round peptide binding assays coupled with free-energy regression” (bioRxiv, 2025)
Non-standard residues stand in square brackets, D forms with d. pY = N[C@@H](Cc1ccc(OP(=O)(O)O)cc1)C(=O)O

B1: Syn-G2-6 (synthetic) (peptide)
peptide: Ac-QHRLNN[pY]ENNRLG-NH2
notes: source: synthetic peptide (SynPeptide, China)
B2: Syn-G2-5 (synthetic) (peptide)
peptide: Ac-QLGHQR[pY]HNITPG-NH2
notes: as for B1
B3: Syn-G2-1 (synthetic) (peptide)
peptide: Ac-QKEAHH[pY]VNWRTG-NH2
notes: as for B1
B4: CD84 pY296 (peptide)
peptide: Ac-QAESRI[pY]DEILQG-NH2
notes: flank added to the 11-residue stretch (surmised: last residue of the library's constant GQSGQ); CD84, human, around pY296; flank added to the 11-residue stretch (surmised: first residue of the library's constant GGQSG); source: synthetic peptide (SynPeptide, China)
B5: CSF1R pY699 (peptide)
peptide: Ac-QEGGVD[pY]KNIHLG-NH2
SMILES: CC[C@H](C)[C@H](NC(=O)[C@H](CC(N)=O)NC(=O)[C@H](CCCCN)NC(=O)[C@H](Cc1ccc(OP(=O)(O)O)cc1)NC(=O)[C@H](CC(=O)O)NC(=O)[C@@H](NC(=O)CNC(=O)CNC(=O)[C@H](CCC(=O)O)NC(=O)[C@H](CCC(N)=O)NC(C)=O)C(C)C)C(=O)N[C@@H](Cc1c[nH]cn1)C(=O)N[C@@H](CC(C)C)C(=O)NCC(N)=O
notes: flank added to the 11-residue stretch (surmised: last residue of the library's constant GQSGQ); CSF1R, human, around pY699; flank added to the 11-residue stretch (surmised: first residue of the library's constant GGQSG); also called CSFR pY699; source: synthetic peptide (SynPeptide, China)
B6: CD3Z pY83 (peptide)
peptide: Ac-QGRREE[pY]DVLDKG-NH2
SMILES: CC(=O)N[C@@H](CCC(N)=O)C(=O)NCC(=O)N[C@@H](CCCNC(=N)N)C(=O)N[C@@H](CCCNC(=N)N)C(=O)N[C@@H](CCC(=O)O)C(=O)N[C@@H](CCC(=O)O)C(=O)N[C@@H](Cc1ccc(OP(=O)(O)O)cc1)C(=O)N[C@@H](CC(=O)O)C(=O)N[C@H](C(=O)N[C@@H](CC(C)C)C(=O)N[C@@H](CC(=O)O)C(=O)N[C@@H](CCCCN)C(=O)NCC(N)=O)C(C)C
notes: flank added to the 11-residue stretch (surmised: last residue of the library's constant GQSGQ); CD3 zeta chain, human, around pY83; flank added to the 11-residue stretch (surmised: first residue of the library's constant GGQSG); also called CD3ζ pY83; source: synthetic peptide (SynPeptide, China)
B7: SLAP-130 pY771 (peptide)
peptide: Ac-QNDGEI[pY]DDIADG-NH2
notes: flank added to the 11-residue stretch (surmised: last residue of the library's constant GQSGQ); SLAP-130, human, around pY771; flank added to the 11-residue stretch (surmised: first residue of the library's constant GGQSG); source: synthetic peptide (SynPeptide, China)
B8: PTPN6 pY564 (peptide)
peptide: Ac-QHKEDV[pY]ENLHTG-NH2
notes: flank added to the 11-residue stretch (surmised: last residue of the library's constant GQSGQ); PTPN6 (SHP1), human, around pY564; flank added to the 11-residue stretch (surmised: first residue of the library's constant GGQSG); also called SHP1 pY564; source: synthetic peptide (SynPeptide, China)
B9: TRAF3IP3 pY322 (peptide)
peptide: Ac-QEWRSQ[pY]EALKEG-NH2
notes: flank added to the 11-residue stretch (surmised: last residue of the library's constant GQSGQ); TRAF3IP3, human, around pY322; flank added to the 11-residue stretch (surmised: first residue of the library's constant GGQSG); source: synthetic peptide (SynPeptide, China)
B10: PLCG2 pY 753 (peptide)
peptide: Ac-QDINSL[pY]DVSRMG-NH2
notes: flank added to the 11-residue stretch (surmised: last residue of the library's constant GQSGQ); PLCG2, human, around pY753; flank added to the 11-residue stretch (surmised: first residue of the library's constant GGQSG); also called PLCγ2 pY753; source: synthetic peptide (SynPeptide, China)
B11: SIGLEC5 pY544 (peptide)
peptide: Ac-QPSTTE[pY]SEIKTG-NH2
notes: flank added to the 11-residue stretch (surmised: last residue of the library's constant GQSGQ); SIGLEC5, human, around pY544; flank added to the 11-residue stretch (surmised: first residue of the library's constant GGQSG); source: synthetic peptide (SynPeptide, China)
B12: SLAP-130 pY595 (peptide)
peptide: Ac-QDDQEV[pY]DDVAEG-NH2
notes: flank added to the 11-residue stretch (surmised: last residue of the library's constant GQSGQ); SLAP-130, human, around pY595; flank added to the 11-residue stretch (surmised: first residue of the library's constant GGQSG); also called SLAP-130 Y595; source: synthetic peptide (SynPeptide, China)

Each binder was assayed against T1, Grb2 SH2 domain (UniProt P62993 60-152, biotin (biotinylated SH2 domain of the selection)) (assay: fluorescence polarisation; competition mode; unlabelled phosphopeptide against 30 nM FITC-Ahx-FDDPS(pY)VNVQN and 123 nM Grb2 SH2 (Table S3)). Conditions: both partners purified.
T1 construct: SH2 domain of the adapter protein Grb2; source: purified
T1 sequence (P62993 60-152): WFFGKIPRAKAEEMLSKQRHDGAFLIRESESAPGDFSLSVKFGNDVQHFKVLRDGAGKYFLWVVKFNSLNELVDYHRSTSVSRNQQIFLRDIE

Row | Kd [µM] | Binder
1 | 2.25 | B1
2 | 0.487 | B2
3 | 0.0318 | B3

The binders below were run against T2, Lyn SH2 domain (121-228) (human, UniProt P07948 121-228, biotin (on the AviTag)) (assay: fluorescence polarisation; competition mode; unlabelled phosphopeptide against 30 nM FITC-Ahx-GDG-pY-EEISPLLL-NH2 and 106.5 nM Lyn SH2 (Table S3)). Conditions: both partners purified.
T2 construct: source: E. coli C43(DE3) with BirA helper plasmid, purified (HisTrap, anion exchange, Ulp1 cleavage, SEC); not shown: His6-SUMO, N-terminal, cleaved; AviTag, C-terminal, kept
T2 sequence (P07948 121-228): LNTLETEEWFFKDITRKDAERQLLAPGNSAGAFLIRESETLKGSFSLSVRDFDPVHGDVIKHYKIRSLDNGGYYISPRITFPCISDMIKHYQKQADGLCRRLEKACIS

Row | Kd [µM] | Binder
4 | 0.091 | B4
5 | 22.8 | B5
6 | 2.95 | B6
7 | 0.0968 | B7
8 | 0.943 | B8
9 | 3.94 | B9
10 | 11.7 | B10
11 | 0.362 | B11
12 | 0.24 | B12

What follows are binders tested against T3, c-Src SH2 domain (UniProt P12931-1 151-248, biotin (biotinylated SH2 domain of the selection)) (assay: fluorescence polarisation; competition mode; unlabelled phosphopeptide against 30 nM FITC-Ahx-GDG-pY-EEISPLLL-NH2 and 122.745 nM c-Src SH2 (123.745 to 125.745 in three rows; Table S3)). Conditions: both partners purified.
T3 construct: SH2 domain of c-Src kinase; source: purified

Row | Kd [µM] | Binder
13 | 0.0281 | B4
14 | 0.094 | B7
15 | 0.909 | B8
16 | 6.48 | B9
17 | 9.66 | B3
18 | 12.3 | B10
19 | 0.282 | B11
20 | 0.191 | B12
